Data published in patent US20180194862A1 (AbbVie / Abbott, published 2018).
Like-named read-outs stand apart in the source and are kept apart here.

What was measured:
[1] = target: T1, human CD40 on cells (HEK293 stable transfectants, HEK-Blue CD40 cells, human B cells, monocytic cells, … (human, UniProt P25942 21-277)); assay: CD40 occupancy on B cells, -MSLN (n = 3)
T1 construct: also called cell-surface CD40

[2] = target: T1, human CD40 on cells (HEK293 stable …); assay: cell-based or functional assay
[3] = target: T2, mouse CD40 (mouse, UniProt P27512 20-193, limits assumed); assay: CD40 binding, format not stated
T2 construct: also called murine CD40
T2 sequence (looked up): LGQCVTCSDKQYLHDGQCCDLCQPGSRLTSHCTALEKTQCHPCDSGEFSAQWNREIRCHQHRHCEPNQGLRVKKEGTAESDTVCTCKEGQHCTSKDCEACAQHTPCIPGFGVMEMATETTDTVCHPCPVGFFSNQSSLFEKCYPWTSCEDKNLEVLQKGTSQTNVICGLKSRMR

[4] = target: T3, MSLN (Table 10-1); assay: MSLN binding, format not stated
T3 chain: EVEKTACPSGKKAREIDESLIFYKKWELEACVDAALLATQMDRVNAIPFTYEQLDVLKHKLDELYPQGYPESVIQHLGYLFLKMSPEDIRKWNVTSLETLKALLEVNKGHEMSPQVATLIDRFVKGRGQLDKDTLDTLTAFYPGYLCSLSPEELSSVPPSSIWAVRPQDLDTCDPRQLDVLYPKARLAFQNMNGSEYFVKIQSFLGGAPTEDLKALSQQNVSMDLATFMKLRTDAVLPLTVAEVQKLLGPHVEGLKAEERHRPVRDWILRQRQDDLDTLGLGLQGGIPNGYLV

[5] = target: T4, soluble form of the extracellular domain of human CD40 (Creative BioMart) (human, UniProt P25942 21-193); assay: SPR
T4 construct: Bought

[6] = target: T5, human mesothelin (human, UniProt Q13421 296-580, limits assumed); assay: SPR
T5 construct: also called Human MSLN

[7] = target: T4, soluble form of the extracellular …; assay: SPR; remark: listed apart in the source
[8] = target: T5, human mesothelin; assay: SPR; remark: listed apart in the source
[9] = target: T6, cynomolgus mesothelin (cynomolgus); assay: SPR
T6 construct: also called cynoMSLN; Cyno MSLN

[10] = target: T7, soluble form of the extracellular domain of cynomolgus (cyno) CD40 (Creative BioMart) (cynomolgus, UniProt G7PG38 21-193); assay: SPR
T7 construct: extracellular domain; also called Cynomolgus CD40

[11] = target: T7, soluble form of the extracellular …; assay: SPR, fast kinetics
[12] = target: T1, human CD40 on cells (HEK293 stable …); assay: cell-based or functional assay; remark: listed apart in the source
[13] = target: T6, cynomolgus mesothelin; assay: SPR; remark: listed apart in the source
[14] = target: T7, soluble form of the extracellular …; assay: SPR; remark: listed apart in the source
[15] = target: CD40 (binding assays of Example 4, Table 4-2); assay: antigen binding, format not stated
[16] = target: T8, MSLN (binding assays of Example 4, Table 4-2) (Homo sapiens (Human), UniProt Q13421 296-598); assay: antigen binding, format not stated
T8 construct: also called mesothelin

[17] = target: T5, human mesothelin; assay: SPR; remark: listed apart in the source
[18] = target: T6, cynomolgus mesothelin; assay: SPR; remark: listed apart in the source
[19] = target: T9, mesothelin on cells (endogenous on SN12C, OVCAR3, SW1990); HEK293 cells expressing cell-surface human … (human, UniProt Q13421 296-598); assay: FACS, SN12C (CA125-)
T9 construct: whole, on cells; also called cell-surface MSLN
Method: (§1) The binding of anti-mesothelin affinity matured variants was measured by FACS on the ovarian cancer cell line OVCAR3, the pancreatic cancer cell line SW1990, and the renal cancer cell line SN12C. Both OVCAR3 and SW1990 express CA125, but CA125 expression on SN12C cells was not detected.

[20] = target: T9, mesothelin on cells (endogenous on …); assay: FACS, OVCAR3 (CA125+)
Method: as §1

T4 sequence (P25942 21-193 limits assumed): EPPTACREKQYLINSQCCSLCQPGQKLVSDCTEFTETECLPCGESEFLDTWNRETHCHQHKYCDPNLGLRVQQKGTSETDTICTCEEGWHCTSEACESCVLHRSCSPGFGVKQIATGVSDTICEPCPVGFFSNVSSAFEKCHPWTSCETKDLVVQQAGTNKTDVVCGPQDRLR
T1 sequence (P25942 21-277 limits assumed): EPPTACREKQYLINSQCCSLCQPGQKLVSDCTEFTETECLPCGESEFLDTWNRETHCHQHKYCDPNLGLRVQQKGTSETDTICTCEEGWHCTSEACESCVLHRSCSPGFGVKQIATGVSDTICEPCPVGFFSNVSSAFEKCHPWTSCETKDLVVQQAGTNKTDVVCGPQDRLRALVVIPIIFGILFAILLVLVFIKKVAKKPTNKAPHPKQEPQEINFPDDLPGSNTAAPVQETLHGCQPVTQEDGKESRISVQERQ
T9 sequence (Q13421 other isoform, or with tags, fused parts or gaps limits assumed): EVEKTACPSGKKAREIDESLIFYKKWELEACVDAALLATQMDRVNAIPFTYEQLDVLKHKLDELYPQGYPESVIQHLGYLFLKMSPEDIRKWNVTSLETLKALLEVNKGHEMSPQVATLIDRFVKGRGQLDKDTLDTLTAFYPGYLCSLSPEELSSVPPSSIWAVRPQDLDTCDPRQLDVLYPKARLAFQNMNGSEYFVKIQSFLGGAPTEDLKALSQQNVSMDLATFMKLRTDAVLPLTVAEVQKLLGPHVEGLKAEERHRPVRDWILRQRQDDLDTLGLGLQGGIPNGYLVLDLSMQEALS
T8 sequence (Q13421 other isoform, or with tags, fused parts or gaps limits assumed, form in doubt): as the sequence (Q13421 other isoform, or with tags, fused parts or gaps limits assumed) above
CD40 (binding assays of Example 4, Table 4-2), sequence (P25942 21-277): as the sequence (P25942 21-277 limits assumed) above

B1: huAb9 A2I (antibody, human IgG1, kappa)
heavy: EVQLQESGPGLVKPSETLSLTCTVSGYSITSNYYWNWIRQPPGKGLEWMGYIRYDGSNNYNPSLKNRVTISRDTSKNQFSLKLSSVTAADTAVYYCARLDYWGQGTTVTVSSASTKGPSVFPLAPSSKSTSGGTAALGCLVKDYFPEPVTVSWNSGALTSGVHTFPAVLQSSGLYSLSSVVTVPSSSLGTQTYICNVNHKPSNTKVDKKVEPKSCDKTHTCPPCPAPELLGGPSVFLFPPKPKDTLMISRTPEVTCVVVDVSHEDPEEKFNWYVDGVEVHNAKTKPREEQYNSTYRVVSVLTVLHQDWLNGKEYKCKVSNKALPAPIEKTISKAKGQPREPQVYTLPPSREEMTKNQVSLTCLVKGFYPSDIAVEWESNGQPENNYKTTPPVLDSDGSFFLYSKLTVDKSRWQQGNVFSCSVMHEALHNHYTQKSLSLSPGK
light: DIVMTQTPLSLSVTPGQPASISCRSSQSLENTNGNTFLNWYLQKPGQSPQLLIYRVSNRFSGVPDRFSGSGSGTDFTLKISRVEAEDVGVYYCLQVTHVPFTFGQGTKLEIKRTVAAPSVFIFPPSDEQLKSGTASVVCLLNNFYPREAKVQWKVDNALQSGNSQESVTEQDSKDSTYSLSSTLTLSKADYEKHKVYACEVTHQGLSSPVTKSFNRGEC
notes: human IgG1 V273E
[1]
  EC50: 4.1 nM
[2]
  B-cell CD23 EC50, +MSLN: 2.5 nM
  B-cell CD23 EC50, -MSLN: 1.4 nM
  B-cell CD86 EC50, +MSLN: 0.7 nM
  B-cell CD86 EC50, -MSLN: 0.35 nM
  B-cell proliferation EC50, +MSLN: 12 nM
  B-cell proliferation EC50, -MSLN: 4.5 nM
  moDC CD83 EC50, +MSLN: 6.9 nM
  moDC CD83 EC50, -MSLN: 2 nM
  moDC IL-12p70 EC50, +MSLN: 3.4 nM
  moDC IL-12p70 EC50, -MSLN: 12.4 nM

B2: anti-CD40 antibody (1C10 mIgG1) (antibody, V domains shown)
VH: EVQLVESGGGLVQPGRSLKLSCAASGFTFSNYDMAWVRQAPTKGLEWVASISPSGGRTYYRDSVKGRFTVSRDNAKSTLYLQMDSLRSEDTATYYCARHDGSYFDYWGQGVMVTVSS
VL: DTVLTQSPALAVSPGERVTISCRASESVSTLMHWYQQKPGQQPKLLIYLASHLESGVPARFSGSGSGTDFTLTIDPVEADDTATYYCQESWNDPWTFGGGTKLELK
notes: murine IgG1
[3]
  EC50: 0.21 µg/mL

B3: LB-1 (bispecific antibody, mouse IgG1)
chain: EVQLVESGGGLVQPGRSLKLSCAASGFTFSNYDMAWVRQAPTKGLEWVASISPSGGRTYYRDSVKGRFTVSRDNAKSTLYLQMDSLRSEDTATYYCARHDGSYFDYWGQGVMVTVSSDLSGGGGSGGGGSGGGGSGGGGSTGDTVLTQSPALAVSPGERVTISCRASESVSTLMHWYQQKPGQQPKLLIYLASHLESGVPARFSGSGSGTDFTLTIDPVEADDTATYYCQESWNDPWTFGGGTKLELKRLEVPRDSGSKPCICTVPEVSSVFIFPPKPKDVLTITLTPKVTCVVVDISKDDPEVQFSWFVDDVEVHTAQTQPREEQFNSTFRSVSELPIMHQDWLNGKEFKCRVNSAAFPAPIEKTISKTKGRPKAPQVYTIPPPKEQMAKDKVSLTCMITDFFPEDITVEWQWNGQPAENYKNTQPIMDTDGSYFVYSKLNVQKSNWEAGNTFTCSVLHEGLHNHHTEKSLSHSPGKVDGASSPVNVSSPSVQDIQVQLVQSGAEVKKPGASVKVSCKASGYTFTGNYINWVRQAPGQGLEWMGIINPTKGWTLYAQKFQGRVTMTRDTSISTAYMELSSLRSEDTAVYYCARWHHGTWIFDYWGQGTLVTVSSDLSGGGGSGGGGSGGGGSGGGGSTGDIVLTQPPSVSGAPGQRVTISCSGSSSNIGSNYVSWYQQLPGTAPKLLIYNDNQRPSGVPDRFSGSKSGTSASLAITGLQSEDEADYYCSTYDRRTFSVFGGGTKLTVLG
notes: 1C10 scFv (VH→VL), murine IgG1 hinge-CH2-CH3, MOR06626 scFv (VH→VL); also called mouse bispecific formula (I) protein LB-1
[4]
  EC50: 1.39 µg/mL
[3]
  EC50: 2.75 µg/mL

B4: CF1 (bispecific antibody, human IgG1, lambda)
heavy: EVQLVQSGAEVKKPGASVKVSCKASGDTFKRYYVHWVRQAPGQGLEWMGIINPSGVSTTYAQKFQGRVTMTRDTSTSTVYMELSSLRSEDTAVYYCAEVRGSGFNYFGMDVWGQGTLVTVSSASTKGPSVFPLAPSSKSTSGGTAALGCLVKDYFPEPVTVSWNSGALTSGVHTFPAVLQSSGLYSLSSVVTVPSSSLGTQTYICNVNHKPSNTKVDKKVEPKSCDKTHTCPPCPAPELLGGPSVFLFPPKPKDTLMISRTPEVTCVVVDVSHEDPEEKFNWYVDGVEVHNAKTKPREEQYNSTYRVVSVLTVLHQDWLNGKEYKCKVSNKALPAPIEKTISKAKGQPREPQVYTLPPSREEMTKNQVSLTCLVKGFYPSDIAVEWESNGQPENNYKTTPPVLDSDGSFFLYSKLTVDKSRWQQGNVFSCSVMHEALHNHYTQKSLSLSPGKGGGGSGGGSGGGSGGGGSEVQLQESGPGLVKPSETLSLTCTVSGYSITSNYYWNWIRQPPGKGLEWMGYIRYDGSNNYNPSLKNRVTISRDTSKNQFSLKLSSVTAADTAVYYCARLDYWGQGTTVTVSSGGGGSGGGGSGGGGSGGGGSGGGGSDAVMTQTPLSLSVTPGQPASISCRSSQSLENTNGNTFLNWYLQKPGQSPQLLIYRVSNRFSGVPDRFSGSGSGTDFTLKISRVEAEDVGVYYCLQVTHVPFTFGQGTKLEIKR
light: SYELTQPPSVSVSPGQTASITCSGDKLGDKYASWYQQKPGQSPVLVIYQDNRRPSGIPERFSGSNSGNTATLTISGTQAMDEADYYCQAWDSDTYVFGTGTKVTVLGQPKAAPSVTLFPPSSEELQANKATLVCLISDFYPGAVTVAWKADSSPVKAGVETTTPSKQSNNKYAASSYLSLTPEQWKSHRSYSCQVTHEGSTVEKTVAPTECS
notes: IgG-scFv: HuAM15 Fab, IgG1 V273E, CD40 scFv
[5]
  Kd: 390 nM
  koff: 0.26 s⁻¹
  kon: 680000 M⁻¹ s⁻¹
[6]
  Kd: 0.47 nM
  koff: 2.4e-05 s⁻¹
  kon: 52000 M⁻¹ s⁻¹
[7]
  Kd: < 400 nM
[8]
  Kd: < 400 nM
[9]
  Kd: ≤ 0.29 nM
[10]
  Kd: < 150 nM
[11]
  Kd: 150 nM
[12]
  Max. IL-12p70, dendritic cells with cell-surface mesothelin: 100 pg/mL
[13]
  Kd: 0.23 nM
  koff: 7.1e-05 s⁻¹
  kon: 310000 M⁻¹ s⁻¹

B5: CF3 (bispecific antibody, human IgG1, lambda)
heavy: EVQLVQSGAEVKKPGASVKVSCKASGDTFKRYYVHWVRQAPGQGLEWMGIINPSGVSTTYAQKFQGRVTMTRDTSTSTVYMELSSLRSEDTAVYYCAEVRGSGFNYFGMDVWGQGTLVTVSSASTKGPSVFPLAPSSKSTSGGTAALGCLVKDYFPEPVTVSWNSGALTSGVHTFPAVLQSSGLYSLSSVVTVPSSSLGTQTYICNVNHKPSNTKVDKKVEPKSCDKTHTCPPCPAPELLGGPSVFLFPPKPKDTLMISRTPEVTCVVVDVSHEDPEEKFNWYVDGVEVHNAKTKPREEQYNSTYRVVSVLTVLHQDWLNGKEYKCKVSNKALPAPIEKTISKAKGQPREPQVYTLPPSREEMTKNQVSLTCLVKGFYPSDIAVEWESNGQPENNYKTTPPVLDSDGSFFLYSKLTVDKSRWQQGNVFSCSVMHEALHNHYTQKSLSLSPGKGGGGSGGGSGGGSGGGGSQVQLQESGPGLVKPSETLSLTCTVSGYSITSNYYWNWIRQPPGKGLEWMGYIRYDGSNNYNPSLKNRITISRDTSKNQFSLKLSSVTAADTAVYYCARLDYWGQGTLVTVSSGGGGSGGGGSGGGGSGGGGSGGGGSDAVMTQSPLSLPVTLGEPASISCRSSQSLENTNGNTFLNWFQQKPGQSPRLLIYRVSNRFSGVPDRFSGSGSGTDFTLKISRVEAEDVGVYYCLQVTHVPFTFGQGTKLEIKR
light: SYELTQPPSVSVSPGQTASITCSGDKLGDKYASWYQQKPGQSPVLVIYQDNRRPSGIPERFSGSNSGNTATLTISGTQAMDEADYYCQAWDSDTYVFGTGTKVTVLGQPKAAPSVTLFPPSSEELQANKATLVCLISDFYPGAVTVAWKADSSPVKAGVETTTPSKQSNNKYAASSYLSLTPEQWKSHRSYSCQVTHEGSTVEKTVAPTECS
notes: IgG-scFv
[5]
  Kd: 14 nM
  koff: 0.0096 s⁻¹
  kon: 690000 M⁻¹ s⁻¹
[6]
  Kd: 0.59 nM
  koff: 3.1e-05 s⁻¹
  kon: 52000 M⁻¹ s⁻¹
[7]
  Kd: < 400 nM
[8]
  Kd: < 400 nM
[9]
  Kd: ≤ 0.29 nM
[10]
  Kd: < 150 nM
[12]
  Max. IL-12p70, dendritic cells with cell-surface mesothelin: 75 pg/mL
[13]
  Kd: 0.29 nM
  koff: 8.2e-05 s⁻¹
  kon: 280000 M⁻¹ s⁻¹
[14]
  Kd: 8.3 nM
  koff: 0.011 s⁻¹
  kon: 1.3e+06 M⁻¹ s⁻¹

B6: B39 (bispecific antibody, IgG2)
chain: EVQLQESGPGLVKPSETLSLTCTVSGYSITSNYYWNWIRQPPGKGLEWMGYIRYDGSNNYNPSLKNRVTISRDTSKNQFSLKLSSVTAADTAVYYCARLDYWGQGTTVTVSSDLSGGGGSGGGGSGGGGSGGGGSTGDAVMTQTPLSLSVTPGQPASISCRSSQSLENTNGNTFLNWYLQKPGQSPQLLIYRVSNRFSGVPDRFSGSGSGTDFTLKISRVEAEDVGVYYCLQVTHVPFTFGQGTKLEIKRVERKSSVECPPCPAPPVAGPSVFLFPPKPKDTLMISRTPEVTCVVVDVSHEDPEVQFNWYVDGVEVHNAKTKPREEQFNSTFRVVSVLTVVHQDWLNGKEYKCKVSNKGLPAPIEKTISKTKGQPREPQVYTLPPSREEMTKNQVSLTCLVKGFYPSDIAVEWESNGQPENNYKTTPPMLDSDGSFFLYSKLTVDKSRWQQGNVFSCSVMHEALHNHYTQKSLSLSPGKVDGASSPVNVSSPSVQDIEVQLVQSGAEVKKPGASVKVSCKASGDTFKRYYVHWVRQAPGQGLEWMGIINPSGVSTTYAQKFQGRVTMTRDTSTSTVYMELSSLRSEDTAVYYCAEVRGSGFNYFGMDVWGQGTLVTVSSDLSGGGGSGGGGSGGGGSGGGGSTGSYELTQPPSVSVSPGQTASITCSGDKLGDKYASWYQQKPGQSPVLVIYQDNRRPSGIPERFSGSNSGNTATLTISGTQAMDEADYYCQAWDSDTYVFGTGTKVTVLGQ
notes: scFv-Fc-scFv, huIgG2
[15]
  EC50: 0.5 µg/mL
[16]
  EC50: 7.4 µg/mL

B7: HuAM15 (antibody, V domains shown)
VH: EVQLVQSGAEVKKPGASVKVSCKASGDTFKRYYVHWVRQAPGQGLEWMGIINPSGVSTTYAQKFQGRVTMTRDTSTSTVYMELSSLRSEDTAVYYCAEVRGSGFNYFGMDVWGQGTLVTVSS
VL: SYELTQPPSVSVSPGQTASITCSGDKLGDKYASWYQQKPGQSPVLVIYQDNRRPSGIPERFSGSNSGNTATLTISGTQAMDEADYYCQAWDSDTYVFGTGTKVTVL
notes: fully human antibody
[16]
  EC50: 0.9 µg/mL
[17]
  Kd: 0.31 nM
  koff: 1.3e-05 s⁻¹
  kon: 44000 M⁻¹ s⁻¹
[18]
  Kd: 4.5 nM
  koff: 0.00018 s⁻¹
  kon: 40000 M⁻¹ s⁻¹
[19]
  EC50: 0.07 µg/mL
  Maximum binding (MFI): 9390 MFI
[20]
  EC50: 0.7 µg/mL
  Maximum binding (MFI): 3550 MFI
